Experimental findings from PMC10933344, “A lncRNA Dleu2-encoded peptide relieves autoimmunity by facilitating Smad3-mediated Treg induction” (EMBO Reports, 2024) are described below.

Where no end group is shown, it is not given here.

The experiment addresses T1, Smad3, recombinant (pET28a) (UniProt Q8BUN5 1-425).
T1 construct: the His tag is inferred from the vector only; also called free Smad3; source: bacterial overexpression (pET28a), purified
In words: BLI; Octet RED96; 50 ug/ml Biotin-labeled Dleu2-17aa immobilised on streptavidin biosensors; 100 mM Tris-HCl pH 8.0, 20 mM MgCl2, 200 mM KCl, 0.1 mg/mL BSA; Smad3 at 1.67-53.3 uM, association 800 s, dissociation in DPBS (0.5% BSA) 180 s; RT. As to conditions: both partners purified.

T1 sequence (Q8BUN5 whole entry): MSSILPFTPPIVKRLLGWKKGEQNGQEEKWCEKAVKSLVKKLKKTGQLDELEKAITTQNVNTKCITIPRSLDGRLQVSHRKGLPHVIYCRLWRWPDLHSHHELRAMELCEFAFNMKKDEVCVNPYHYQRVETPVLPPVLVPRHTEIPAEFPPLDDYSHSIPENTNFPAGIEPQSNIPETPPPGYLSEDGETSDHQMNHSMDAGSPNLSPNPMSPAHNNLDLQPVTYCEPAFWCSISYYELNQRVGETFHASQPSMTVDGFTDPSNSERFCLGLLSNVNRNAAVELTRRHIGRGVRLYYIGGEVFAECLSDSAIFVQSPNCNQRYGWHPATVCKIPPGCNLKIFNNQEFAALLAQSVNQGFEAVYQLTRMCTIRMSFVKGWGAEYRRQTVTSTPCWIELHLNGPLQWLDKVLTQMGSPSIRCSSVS

B1: Biotin-labeled Dleu2-17aa (peptide)
peptide: MLGRRARRRGRGRRRPA
modifications: also: biotin-labeled, position not given here
notes: Dleu2-17aa, 17-amino-acid micropeptide encoded by a short ORF in the first exon of the mouse lncRNA Dleu2; also called Biotin-Dleu2-17aa; biotinylated Dleu2-17aa
Regarding B1, the Kd is 2430 nM.
